Assay [1] has as its target T1, individual catalytic domain of human MT1-MMP (MT1-CAT) (human, UniProt P50281, biotin (EZ-Link sulfo-NHS-LC-biotin, 1:20 enzyme-biotin molar ratio) in the Fab binding ELISA only; unlabelled in the competition ELISA and the cleavage assays). Description: cell-based or functional assay.
Assay [2] addresses T1, individual catalytic domain of human …. The assay can be described thus: ELISA; biotin-labelled MT1-CAT (25 nM) captured on streptavidin-coated wells; Fab 0-8,000 nM in TBS/T-0.5% gelatin, 1 h, ambient temperature; detected with HRP-conjugated goat anti-human Fab; Kd = Fab concentration that bound 50% of MT1-MMP. To be noted: both partners purified.

B1: 3E9 Fab (Fab, V domains shown)
VH: EVQLVESGGGLVQPGGSLRLSCAASGFNLYYSSMHWVRQAPGKGLEWVASIYPSYGSTYYADSVKGRFTISADTSKNTAYLQMNSLRAEDTAVYYCARNGRYPGFLKRAHKRLLNFKAYVMDYWGQGTLVTVSS
VL: DIQMTQSPSSLSASVGDRVTITCRASQSVSSAVAWYQQKPGKAPKLLIYSASSLYSGVPSRFSGSRSGTDFTLTISSLQPEDFATYYCQQGSWYLITFGQGTKVEIK
For B1, the “IC50 of inhibition of MT1-CAT (5 nM) cleavage of the Mca-PLGL-Dpa-AR-NH2 peptide (1 uM); Fab 0-5,000 nM” value (from here on “IC50 of inhibition of MT1-CAT”) in assay [1] was over 5000 nM.

B2: DX2400 Fab (Fab, V domains shown)
VH: EVQLLESGGGLVQPGGSLRLSCAASGFTFSLYSMNWVRQAPGKGLEWVSSIYSSGGSTLYADSVKGRFTISRDNSKNTLYLQMNSLRAEDTAVYYCARGRAFDIWGQGTMVTVSS
VL: DIQMTQSPSSLSASVGDRVTITCRASQSVGTYLNWYQQKPGKAPKLLIYATSNLRSGVPSRFSGSGSGTDFTLTISSLQPEDFATYYCQQSYSIPRFTFGPGTKVDIK
notes: VH CDR-H3; Only CDR-H3 is printed; also called DX2400 Fab fragment; source: cloning, expression and isolation reported earlier [66]
For the molecule B2, the Kd in assay [2] was 2 nM. Moreover, the “IC50 of inhibition of MT1-CAT” value in assay [1] worked out at 8.5 nM.

B3: 3A2 Fab (Fab, V domains shown)
VH: EVQLVESGGGLVQPGGSLRLSCAASGFNLSSSSMHWVRQAPGKGLEWVASIYPSYSYTYYADSVKGRFTISADTSKNTAYLQMNSLRAEDTAVYYCARVKLQKDKSHQWIRNLVATPYGRYVMDYWGQGTLVTVSS
VL: DIQMTQSPSSLSASVGDRVTITCRASQSVSSAVAWYQQKPGKAPKLLIYSASSLYSGVPSRFSGSRSGTDFTLTISSLQPEDFATYYCQQYGYPITFGQGTKVEIK
notes: numbers count on the anti-TDRD3 Fab; From a synthetic human Fab library with 23-27 residue long CDR-H3; selection is described in an accompanying manuscript (submitted); also called 3A2 antibody; 3A2 Fab antibody; source: E. coli, purified from cell lysates (purity >95%)
Turning to B3, the equilibrium dissociation constant (Kd) in assay [2] worked out at 8 nM. Besides, the “IC50 of inhibition of MT1-CAT” value in assay [1] was 18 nM.

B4: 2B5 Fab (Fab, V domains shown)
VH: EVQLVESGGGLVQPGGSLRLSCAASGFNLSYSSMHWVRQAPGKGLEWVASIYPYSGYTYYADSVKGRFTISADTSKNTAYLQMNSLRAEDTAVYYCARIGVNAWAVKMSQRMLATRGSGWYVMDYWGQGTLVTVSS
VL: DIQMTQSPSSLSASVGDRVTITCRASQSVSSAVAWYQQKPGKAPKLLIYSASSLYSGVPSRFSGSRSGTDFTLTISSLQPEDFATYYCQQSSSYPYSPITFGQGTKVEIK
notes: VH CDR-H3; Only CDR-H3 is printed; Same synthetic human Fab library as 3A2 (accompanying manuscript, submitted); source: E. coli, purified from cell lysates (purity >95%)
As for B4, the binding result in assay [2] is “binds”.

The values above are taken from article PMC5356841 (Oncotarget, 2016).
